Measurements reported in article PMC12809912.
“And” between values parts separate entries of the source, which are not always exact repeats. Identical values can stand only once.

T1: synthetic DEFA5 peptide residues 54-66 (…) (human)
T1 sequence (peptide): LRTSGSQARATCY

T2: synthetic DEFA5 peptide residues 52-66 (…) (human)
T2 sequence (peptide): SALRTSGSQARATCY


Key:
[1] = molecular target: mouse monoclonal antibody clone 4F5 (anti-DEFA5); assay: indirect ELISA; conditions: chain shown with the change;; parent: est. 2.2; read off a plot
[2] = molecular target: mouse monoclonal antibody clone 1A8 (anti-DEFA5); assay: indirect ELISA; conditions: chain shown with the change;; parent: est. 2.6; read off a plot
[3] = molecular target: recombinant His-tagged human alpha-defensin 5 (DEFA5) construct, residues 23-94 behind a soluble fusion partner (human); assay: ELISA; indirect ELISA: recombinant DEFA5 coated at 100 ng/mL in carbonate-bicarbonate buffer pH 9.6, antibodies 250-3.9 nM 1 h at room temperature; one-site specific binding fit; two experiments
[4] = molecular target: T1, synthetic DEFA5 peptide residues 54-66 (…) (human); assay: SPR; synthetic peptides 54-66 (for 1A8) and 52-66 (for 4F5); who was immobilised is not told (Fig. S5)
[5] = molecular target: T2, synthetic DEFA5 peptide residues 52-66 (…) (human); assay: as above

recombinant His-tagged human alpha-defensin 5 (DEFA5) construct, residues 23-94 behind a soluble fusion partner (human), sequence (Q01523 23-94): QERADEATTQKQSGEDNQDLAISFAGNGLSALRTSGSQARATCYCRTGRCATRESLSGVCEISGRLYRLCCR

response [1] [OD450nm]	response [2] [OD450nm]	Kd [3]	Kd [4] [µM]	Kd [5] [mM]	Binder
2.3	2.6				RATCYCRTGRCATR [peptide No. 57 of the overlapping library, DEFA5 amino acids 61-75 (…) A1del]
		42.1 nM and 45.5 nM	303		mouse monoclonal antibody clone 1A8 (anti-DEFA5) (antibody, V domains shown) VH: QVQLQQSGAELVRPGASVKMSCKALGYTFFDYEMHWMKQTPVYGLEWIGAIHPGSGDTAYNQKFKGKATLTADKSSNTAYMELSSLTSEDSAVYYCTREGTVVAPFDYWGQGTTLTVSS VL: DVLMTQTPLSLPVSLGDQASISCRSSQSIVHSNGNTYLEWYLQKPGQSPKLLINKVSNRFSGVPDRFSGSGSGTDFTLKISRVEAEDLGVYYCFQGSYVPYTFGGGTKLEIK
		53.4 nM and 56.6 nM		4.8	mouse monoclonal antibody clone 4F5 (anti-DEFA5) (antibody, V domains shown) VH: QVQLQQSGAELVRPGASVKMSCKALGYTFFDYEMHWMKQTPVYGLEWIGAIHPGSGDTAYNQKFKGKATLTADKSSNTAYMELSSLTSEDSAVYYCTREGTVVAPFDYWGQGTTLTVSS VL: DVLMTQTPLSLPVSLGDQASISCRSSQSIVHSNGNTYLEWYLQKPGQSPKLLINKVSNRFSGVPDRFSGSGSGTDFTLKISRVEAEDLGVYYCFQGSYVPYTFGGGTKLEIK
